This data set concerns the molecule itself. Put plainly: dynamic light scattering.

Changes are numbered by the printed parent chain.

B1: STIM1 23-213 (luminal domain of human stromal interaction molecule-1), wild type, unmodified (1 mM DTT) (domain or fragment, UniProt Q13586-1 23-213, looked up)
chain: LSHSHSEKATGTSSGANSEESTAAEFCRIDKPLCHSEDEKLSFEAVRNIHKLMDDDANGDVDVEESDEFLREDLNYHDPTVKHSTFHGEDKLISVEDLWKAWKSSEVYNWTVDEVVQWLITYVELPQYEETFRKLQLSGHAMPRLAVTNTTMTGTVLKMTDRSHRQKLQLKALDTVLFGPPLLTRHNHLKD
With B1, the binding result is reported as “binds”.

B2: Cys49Ser/Cys56Ser double mutant STIM1 23-213 (domain or fragment, human, UniProt Q13586-1 23-213, looked up)
chain: B1 chain with C27S, C34S
Take B2: the binding result is given as “binds”.

Source of the values: article doi:10.1101/304022 (bioRxiv, 2018).
